The values below come from US20230234992A1.

This assay addresses S Stabilizing Construct #21, CoV2_S2_1_pross mutant Spike (S) protein (SARS-CoV-2) (UniProt P0DTC2).

CR3022 antibody (RBD Specific Antibody): the fold affinity decrease was found to be 17 fold.
